Holding throughout (assay): cell-based or functional assay
Test [1] concerns the target T1, human PD1 on cells (Jurkat cells expressing human PD1; activated human T cells) (human, UniProt Q15116 25-288).
Test [2] deals with T1, human PD1 on cells (Jurkat cells …). This is another data set of the same source.
Test [3] shares this target. The source holds these as a separate data set.

T1 sequence (Q15116 25-288 limits assumed): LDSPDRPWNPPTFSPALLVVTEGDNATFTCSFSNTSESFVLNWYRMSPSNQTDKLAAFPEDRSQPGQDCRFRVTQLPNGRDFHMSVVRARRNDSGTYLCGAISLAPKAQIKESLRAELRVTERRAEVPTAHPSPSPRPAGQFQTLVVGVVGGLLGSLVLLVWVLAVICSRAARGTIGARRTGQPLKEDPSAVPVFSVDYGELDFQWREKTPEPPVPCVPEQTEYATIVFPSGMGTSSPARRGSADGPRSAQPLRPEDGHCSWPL

B1: bispecific CrossMab 8013 (PD1-0103-0312/1026) (bispecific antibody, human IgG1, kappa, L234A L235A)
heavy 1: QSMQESGPGLVKPSQTLSLTCTVSGFSLSSYAMSWIRQHPGKGLEWIGYIWSGGSTDYASWAKSRVTISKTSTTVSLKLSSVTAADTAVYYCARRYGTSYPDYGDASGFDPWGQGTLVTVSSASTKGPSVFPLAPSSKSTSGGTAALGCLVEDYFPEPVTVSWNSGALTSGVHTFPAVLQSSGLYSLSSVVTVPSSSLGTQTYICNVNHKPSNTKVDEKVEPKSCDKTHTCPPCPAPEAAGGPSVFLFPPKPKDTLMISRTPEVTCVVVDVSHEDPEVKFNWYVDGVEVHNAKTKPREEQYNSTYRVVSVLTVLHQDWLNGKEYKCKVSNKALGAPIEKTISKAKGQPREPQVCTLPPSRDELTKNQVSLSCAVKGFYPSDIAVEWESNGQPENNYKTTPPVLDSDGSFFLVSKLTVDKSRWQQGNVFSCSVMHEALHNHYTQKSLSLSP
light 1: AIQLTQSPSSLSASVGDRVTITCRASQSISSYLAWYQQKPGKAPKLLIYRASTLASGVPSRFSGSGSGTDFTLTISSLQPEDFATYYCQQNYASSNVDNTFGGGTKVEIKRTVAAPSVFIFPPSDRKLKSGTASVVCLLNNFYPREAKVQWKVDNALQSGNSQESVTEQDSKDSTYSLSSTLTLSKADYEKHKVYACEVTHQGLSSPVTKSFNRGEC
heavy 2: not shown
light 2: EVQLLESGGGLVQPGGSLRLSCAASGFSFSSYTMSWVRQAPGKGLEWVATISGGGRDIYYPDSVKGRFTISRDNSKNTLYLQMNSLRAEDTAVYYCVLLTGRVYFALDSWGQGTLVTVSSASVAAPSVFIFPPSDEQLKSGTASVVCLLNNFYPREAKVQWKVDNALQSGNSQESVTEQDSKDSTYSLSSTLTLSKADYEKHKVYACEVTHQGLSSPVTKSFNRGEC
Regarding B1, the “Fold activity vs. control (EC50 of Granzyme B, mMLR), control PD1-0103-312” value in test [1] was found to be 0.47 fold vs PD1-0103-312. Further, the “EC50 (pM) of Granzyme B production, mMLR” value in test [2] stood at 388 pM. Further, the “Fold activity vs. control (EC50 of Granzyme B, mMLR), control 8014” value in test [3] was found to be 191 fold vs 8014.

B2: bispecific CrossMab 8017 (Pembrolizumab/1026) (bispecific antibody, human IgG1, kappa, L234A L235A)
heavy 1: QSMQESGPGLVKPSQTLSLTCTVSGFSLSSYAMSWIRQHPGKGLEWIGYIWSGGSTDYASWAKSRVTISKTSTTVSLKLSSVTAADTAVYYCARRYGTSYPDYGDASGFDPWGQGTLVTVSSASTKGPSVFPLAPSSKSTSGGTAALGCLVEDYFPEPVTVSWNSGALTSGVHTFPAVLQSSGLYSLSSVVTVPSSSLGTQTYICNVNHKPSNTKVDEKVEPKSCDKTHTCPPCPAPEAAGGPSVFLFPPKPKDTLMISRTPEVTCVVVDVSHEDPEVKFNWYVDGVEVHNAKTKPREEQYNSTYRVVSVLTVLHQDWLNGKEYKCKVSNKALGAPIEKTISKAKGQPREPQVCTLPPSRDELTKNQVSLSCAVKGFYPSDIAVEWESNGQPENNYKTTPPVLDSDGSFFLVSKLTVDKSRWQQGNVFSCSVMHEALHNHYTQKSLSLSP
light 1: AIQLTQSPSSLSASVGDRVTITCRASQSISSYLAWYQQKPGKAPKLLIYRASTLASGVPSRFSGSGSGTDFTLTISSLQPEDFATYYCQQNYASSNVDNTFGGGTKVEIKRTVAAPSVFIFPPSDRKLKSGTASVVCLLNNFYPREAKVQWKVDNALQSGNSQESVTEQDSKDSTYSLSSTLTLSKADYEKHKVYACEVTHQGLSSPVTKSFNRGEC
heavy 2: not shown
light 2: QVQLVQSGVEVKKPGASVKVSCKASGYTFTNYYMYWVRQAPGQGLEWMGGINPSNGGTNFNEKFKNRVTLTTDSSTTTAYMELKSLQFDDTAVYYCARRDYRFDMGFDYWGQGTTVTVSSASVAAPSVFIFPPSDEQLKSGTASVVCLLNNFYPREAKVQWKVDNALQSGNSQESVTEQDSKDSTYSLSSTLTLSKADYEKHKVYACEVTHQGLSSPVTKSFNRGEC
Regarding B2, the “Fold activity vs. control (EC50 of Granzyme B, mMLR), control PD1-0103-312” value in test [1] came to 1.92 fold vs PD1-0103-312. Also, the “EC50 (pM) of Granzyme B production, mMLR” value in test [2] turned out to be 121 pM. Besides, in test [3], the “Fold activity vs. control (EC50 of Granzyme B, mMLR), control 8019” value is 1510 fold vs 8019.

Source of the values: patent publication US20250215103A1 (Hoffmann-La Roche, published 2025).
